Patent US20240383984A1 (Genentech, published 2024)

T1: human FcRH5 protein fragment (soluble) (human, UniProt Q96RD9 16-851)
T1 construct: whole entry named; also called soluble human FcRH5; Human FcRH5 (BIACORE analyte)
T1 sequence: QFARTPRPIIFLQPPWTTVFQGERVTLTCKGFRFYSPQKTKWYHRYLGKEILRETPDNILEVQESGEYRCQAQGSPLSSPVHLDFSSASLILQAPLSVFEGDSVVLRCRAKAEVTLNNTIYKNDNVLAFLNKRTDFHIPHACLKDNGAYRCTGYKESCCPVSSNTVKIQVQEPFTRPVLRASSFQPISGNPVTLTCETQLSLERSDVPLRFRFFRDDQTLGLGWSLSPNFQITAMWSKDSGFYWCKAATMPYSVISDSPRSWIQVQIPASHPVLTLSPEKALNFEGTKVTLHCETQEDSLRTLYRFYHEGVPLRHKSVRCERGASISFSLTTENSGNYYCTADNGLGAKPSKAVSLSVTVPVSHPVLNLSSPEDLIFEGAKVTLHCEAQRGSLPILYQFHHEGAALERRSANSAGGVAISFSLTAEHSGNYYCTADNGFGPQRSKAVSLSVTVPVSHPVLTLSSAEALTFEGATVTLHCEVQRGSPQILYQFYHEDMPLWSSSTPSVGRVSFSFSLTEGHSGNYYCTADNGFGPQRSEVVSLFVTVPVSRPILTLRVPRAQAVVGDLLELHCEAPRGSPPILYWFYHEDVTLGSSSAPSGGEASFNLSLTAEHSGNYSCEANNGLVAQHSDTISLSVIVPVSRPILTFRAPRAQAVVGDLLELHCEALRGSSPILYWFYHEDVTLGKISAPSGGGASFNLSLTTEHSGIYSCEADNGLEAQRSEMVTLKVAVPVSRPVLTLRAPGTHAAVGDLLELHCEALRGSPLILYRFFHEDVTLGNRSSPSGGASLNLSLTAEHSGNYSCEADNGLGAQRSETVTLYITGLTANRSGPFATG


Tests used:
[1] = target: T1, human FcRH5 protein fragment (soluble); assay: SPR, hIgG capture, screening
Description: (§1) Briefly, a human IgG capture surface was generated on a Series S CM5 chip using amine coupling and the human IgG capture kit (GE Life Sciences, Piscataway, NJ). Test antibodies were then captured on flow cells 2, 3, or 4, with flow cell 1 used as a reference. An FcRH5 protein fragment was used as the analyte, with a flow rate of […]. Between injections the capture surface was regenerated by a 30-second injection of 3M magnesium chloride or 10 mM glycine, pH 1.5. Interactions were assessed at 25° C. in 10 mM HEPES pH7.4, 150 mM NaCl, and 0.05% Tween 20 (HBSP). Reference data from the reference flow cell and from injection of buffer alone were subtracted prior to kinetic analysis. Kinetic information was calculated by fitting data to a 1:1 binding model. Reference subtraction and data fitting were performed using BIAevaluation software (GE Life Sciences, Piscataway, NJ).
(§2) For affinity screening of HVR-H2 Trp52 and Met64 variants (Table 7), antibodies were expressed by transient transfection of Expi293 cells and purified using tip columns that were custom packed with affinity resin MabSelect SuRe (Glygen Corp., Columbia, MD & GE Life Sciences, Piscataway, NJ). […] Binding of FcRH5 protein fragment to captured antibodies was monitored at 100 nM and 500 nM. Association and dissociation were monitored at a flow rate of 40 μl/min, for 180 s and 300 s, respectively.

[2] = target: T1, human FcRH5 protein fragment (soluble); assay: SPR (BIACORE), IgG captured via anti-human IgG, FcRH5 protein fragment as analyte (100 and 500 nM)
Description: as §1, §2

Binder	Kd [1]	Kd [2]
hu1G7.v1 heavy chain M64F with light chain of hu1G7.v1 (antibody, V domains shown, human IgG) VH: EVQLVESGPGLVKPSETLSLTCTVSGFSLTRFGVHWVRQPPGKGLEWLGVIWRGGSTDYNAAFFSRLTISKDNSKNQVSLKLSSVTAADTAVYYCSNHYYGSSDYALDNWGQGTLVTVSS VL: DIQMTQSPSSLSASVGDRVTITCKASQDVSNIVVWFQQKPGKSPKLLIYSASYRYTGVPSRFSGSGSGTDFTLTISSLQPEDFATYYCQQHYSSPYTFGQGTKVEIK	26 nM	25.9 nM
hu1G7.v1 heavy chain M64L with light chain of hu1G7.v1.3 (antibody, V domains shown, human IgG) VH: EVQLVESGPGLVKPSETLSLTCTVSGFSLTRFGVHWVRQPPGKGLEWLGVIWRGGSTDYNAAFLSRLTISKDNSKNQVSLKLSSVTAADTAVYYCSNHYYGSSDYALDNWGQGTLVTVSS VL: DIQMTQSPSSLSASVGDRVTITCKASQDVRNIVVWFQQKPGKAPKLLIYSGSYRYSGVPSRFSGSGSGTDFTLTISSLQPEDFATYYCQQQYSPPYTFGQGTKVEIK	2.4 nM	2.4 nM
hu1G7.v1 heavy chain M64F with light chain of hu1G7.v1.4 (antibody, V domains shown, human IgG) VH: EVQLVESGPGLVKPSETLSLTCTVSGFSLTRFGVHWVRQPPGKGLEWLGVIWRGGSTDYNAAFFSRLTISKDNSKNQVSLKLSSVTAADTAVYYCSNHYYGSSDYALDNWGQGTLVTVSS VL: DIQMTQSPSSLSASVGDRVTITCKASQDVRNLVVWFQQKPGKAPKLLIYSGSYRYSGVPSRFSGSGSGTDFTLTISSLQPEDFATYYCQQHYSPPYTFGQGTKVEIK	2.5 nM	2.5 nM
hu1G7.v1 heavy chain M64L with light chain of hu1G7.v1.4 (antibody, V domains shown, human IgG) VH: EVQLVESGPGLVKPSETLSLTCTVSGFSLTRFGVHWVRQPPGKGLEWLGVIWRGGSTDYNAAFLSRLTISKDNSKNQVSLKLSSVTAADTAVYYCSNHYYGSSDYALDNWGQGTLVTVSS VL: DIQMTQSPSSLSASVGDRVTITCKASQDVRNLVVWFQQKPGKAPKLLIYSGSYRYSGVPSRFSGSGSGTDFTLTISSLQPEDFATYYCQQHYSPPYTFGQGTKVEIK	2.5 nM	2.5 nM
hu1G7.v1 heavy chain M64I with light chain of hu1G7.v1.4 (antibody, V domains shown, human IgG) VH: EVQLVESGPGLVKPSETLSLTCTVSGFSLTRFGVHWVRQPPGKGLEWLGVIWRGGSTDYNAAFISRLTISKDNSKNQVSLKLSSVTAADTAVYYCSNHYYGSSDYALDNWGQGTLVTVSS VL: DIQMTQSPSSLSASVGDRVTITCKASQDVRNLVVWFQQKPGKAPKLLIYSGSYRYSGVPSRFSGSGSGTDFTLTISSLQPEDFATYYCQQHYSPPYTFGQGTKVEIK	2.5 nM	2.5 nM
hu1G7.v1 heavy chain M64F with light chain of hu1G7.v1.3 (antibody, V domains shown, human IgG) VH: EVQLVESGPGLVKPSETLSLTCTVSGFSLTRFGVHWVRQPPGKGLEWLGVIWRGGSTDYNAAFFSRLTISKDNSKNQVSLKLSSVTAADTAVYYCSNHYYGSSDYALDNWGQGTLVTVSS VL: DIQMTQSPSSLSASVGDRVTITCKASQDVRNIVVWFQQKPGKAPKLLIYSGSYRYSGVPSRFSGSGSGTDFTLTISSLQPEDFATYYCQQQYSPPYTFGQGTKVEIK	2.2 nM	2.2 nM
hu1G7.v1 heavy chain M64F with light chain of hu1G7.v1.7 (antibody, V domains shown, human IgG) VH: EVQLVESGPGLVKPSETLSLTCTVSGFSLTRFGVHWVRQPPGKGLEWLGVIWRGGSTDYNAAFFSRLTISKDNSKNQVSLKLSSVTAADTAVYYCSNHYYGSSDYALDNWGQGTLVTVSS VL: DIQMTQSPSSLSASVGDRVTITCKASQDVRNLVVWFQQKPGKAPKLLIYSGYYRYTGVPSRFSGSGSGTDFTLTISSLQPEDFATYYCQQHYQPPYTFGQGTKVEIK	2.4 nM	2.4 nM
hu1G7.v1 heavy chain M64I with light chain of hu1G7.v1 (antibody, V domains shown, human IgG) VH: EVQLVESGPGLVKPSETLSLTCTVSGFSLTRFGVHWVRQPPGKGLEWLGVIWRGGSTDYNAAFISRLTISKDNSKNQVSLKLSSVTAADTAVYYCSNHYYGSSDYALDNWGQGTLVTVSS VL: DIQMTQSPSSLSASVGDRVTITCKASQDVSNIVVWFQQKPGKSPKLLIYSASYRYTGVPSRFSGSGSGTDFTLTISSLQPEDFATYYCQQHYSSPYTFGQGTKVEIK	30 nM	29.8 nM
hu1G7.v1 heavy chain M64I with light chain of hu1G7.v1.5 (antibody, V domains shown, human IgG) VH: EVQLVESGPGLVKPSETLSLTCTVSGFSLTRFGVHWVRQPPGKGLEWLGVIWRGGSTDYNAAFISRLTISKDNSKNQVSLKLSSVTAADTAVYYCSNHYYGSSDYALDNWGQGTLVTVSS VL: DIQMTQSPSSLSASVGDRVTITCKASQDVSNIVVWFQQKPGKSPKLLIYSGYYRYTGVPSRFSGSGSGTDFTLTISSLQPEDFATYYCQQQFQPPYTFGQGTKVEIK	2.7 nM	2.7 nM
hu1G7.v1 heavy chain M64L with light chain of hu1G7.v1 (antibody, V domains shown, human IgG) VH: EVQLVESGPGLVKPSETLSLTCTVSGFSLTRFGVHWVRQPPGKGLEWLGVIWRGGSTDYNAAFLSRLTISKDNSKNQVSLKLSSVTAADTAVYYCSNHYYGSSDYALDNWGQGTLVTVSS VL: DIQMTQSPSSLSASVGDRVTITCKASQDVSNIVVWFQQKPGKSPKLLIYSASYRYTGVPSRFSGSGSGTDFTLTISSLQPEDFATYYCQQHYSSPYTFGQGTKVEIK	27 nM	26.5 nM
hu1G7.v1 heavy chain M64I with light chain of hu1G7.v1.3 (antibody, V domains shown, human IgG) VH: EVQLVESGPGLVKPSETLSLTCTVSGFSLTRFGVHWVRQPPGKGLEWLGVIWRGGSTDYNAAFISRLTISKDNSKNQVSLKLSSVTAADTAVYYCSNHYYGSSDYALDNWGQGTLVTVSS VL: DIQMTQSPSSLSASVGDRVTITCKASQDVRNIVVWFQQKPGKAPKLLIYSGSYRYSGVPSRFSGSGSGTDFTLTISSLQPEDFATYYCQQQYSPPYTFGQGTKVEIK	2.1 nM	2.1 nM
hu1G7.v1 heavy chain M64I with light chain of hu1G7.v1.6 (antibody, V domains shown, human IgG) VH: EVQLVESGPGLVKPSETLSLTCTVSGFSLTRFGVHWVRQPPGKGLEWLGVIWRGGSTDYNAAFISRLTISKDNSKNQVSLKLSSVTAADTAVYYCSNHYYGSSDYALDNWGQGTLVTVSS VL: DIQMTQSPSSLSASVGDRVTITCKASQDVSNIVVWFQQKPGKAPKLLIYSGYYRYSGVPSRFSGSGSGTDFTLTISSLQPEDFATYYCQQQYQPPYTFGQGTKVEIK	2.7 nM	2.7 nM
hu1G7.v1 heavy chain M64F with light chain of hu1G7.v1.6 (antibody, V domains shown, human IgG) VH: EVQLVESGPGLVKPSETLSLTCTVSGFSLTRFGVHWVRQPPGKGLEWLGVIWRGGSTDYNAAFFSRLTISKDNSKNQVSLKLSSVTAADTAVYYCSNHYYGSSDYALDNWGQGTLVTVSS VL: DIQMTQSPSSLSASVGDRVTITCKASQDVSNIVVWFQQKPGKAPKLLIYSGYYRYSGVPSRFSGSGSGTDFTLTISSLQPEDFATYYCQQQYQPPYTFGQGTKVEIK	2.6 nM	2.6 nM
hu1G7.v1 heavy chain M64I with light chain of hu1G7.v1.7 (antibody, V domains shown, human IgG) VH: EVQLVESGPGLVKPSETLSLTCTVSGFSLTRFGVHWVRQPPGKGLEWLGVIWRGGSTDYNAAFISRLTISKDNSKNQVSLKLSSVTAADTAVYYCSNHYYGSSDYALDNWGQGTLVTVSS VL: DIQMTQSPSSLSASVGDRVTITCKASQDVRNLVVWFQQKPGKAPKLLIYSGYYRYTGVPSRFSGSGSGTDFTLTISSLQPEDFATYYCQQHYQPPYTFGQGTKVEIK	2.6 nM	2.6 nM
hu1G7.v1 heavy chain M64F with light chain of hu1G7.v1.5 (antibody, V domains shown, human IgG) VH: EVQLVESGPGLVKPSETLSLTCTVSGFSLTRFGVHWVRQPPGKGLEWLGVIWRGGSTDYNAAFFSRLTISKDNSKNQVSLKLSSVTAADTAVYYCSNHYYGSSDYALDNWGQGTLVTVSS VL: DIQMTQSPSSLSASVGDRVTITCKASQDVSNIVVWFQQKPGKSPKLLIYSGYYRYTGVPSRFSGSGSGTDFTLTISSLQPEDFATYYCQQQFQPPYTFGQGTKVEIK	1.4 nM	1.4 nM
